According to US11981935B2, “7β-hydroxysteroid dehydrogenase mutants and process for the preparation of ursodeoxycholic acid” (PharmaZell GmbH, priority 2010, dated 2024):
Where a chain is given by its changes, count along the chain named. In names and notes the source's numbering stands.

Columns and labels:
7β-HSDH = 7β-HSDH (Collinsella aerofaciens, UniProt A4ECA9); experiment: Photometric identification of 7β-HSDH activity (production example 1); type: biochemical, Collinsella aerofaciens ATCC 25986; settings: 0.1 mM test substance, potassium phosphate buffer 50 mM pH 8, in the presence of NADP+ or NADPH
Method: For identification of 7β-HSDH activity, the activity was investigated by a photometric method. In a 1 ml cuvette, enzyme and 0.1 mM of test substance (UDCA) were mixed in potassium phosphate buffer (50 mM, pH8).

[1] = target: 7β-HSDH from Collinsella aerofaciens DSM 3979 (Collinsella aerofaciens, UniProt A4ECA9); type: biochemical
[2] = target: T1, 7β-HSDH from Collinsella aerofaciens, wild type (WT), SEQ ID NO:2 (Collinsella aerofaciens, UniProt A4ECA9); experiment: Kinetic measurements of 7β-HSDH variants (microtiter plate photometer, cell lysate); settings: 100 μM NADPH, varied DHCA, Michaelis-Menten model with substrate inhibition
T1 sequence (A4ECA9 1-263): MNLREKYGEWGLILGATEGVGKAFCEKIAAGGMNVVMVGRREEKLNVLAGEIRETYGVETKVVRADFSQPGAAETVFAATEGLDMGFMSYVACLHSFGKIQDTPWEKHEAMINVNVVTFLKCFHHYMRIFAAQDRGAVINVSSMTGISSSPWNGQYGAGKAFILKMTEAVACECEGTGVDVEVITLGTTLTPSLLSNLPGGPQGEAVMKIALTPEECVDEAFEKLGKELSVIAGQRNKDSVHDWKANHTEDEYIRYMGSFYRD

[3] = target: T2, Collinsella aerofaciens 7β-HSDH mutant G39A (parent SEQ ID NO:2) (Collinsella aerofaciens, UniProt A4ECA9, G39A); experiment: as above; settings: 100 μM NADPH, varied DHCA, Michaelis-Menten model with substrate inhibition
T2 sequence (A4ECA9 1-263 G39A): T1 sequence (A4ECA9 1-263) with G39A
Method: (§7) For each of the mutants and for the wild-type enzyme, kinetic measurements were carried out in the microtiter plate photometer, recording the conversion rates of the enzymes both with constant substrate concentrations with variation of cofactor concentrations and vice versa. To determine the specific enzyme activity, the enzyme concentrations in the cell lysate were determined by densitometry.
(§8) In these measurement series, the reaction rate was determined by linear regression over the first 4 measurements (0 s-18 s).
(§9) The data obtained were evaluated with IGOR Pro. […] For this reason, the classical Michaelis-Menten model was used for evaluating the measurement series at constant substrate concentration and variation of cosubstrate concentration, and the Michaelis-Menten model with substrate inhibition was used for the measurement series with constant cosubstrate concentration and variation of substrate concentration.
(§10) vmax, Km and Ki were determined by nonlinear regression.
(§11) [formula] • v specific enzyme activity, U mg^−1=μmol min^−1 mg^−1 • vmax maximum specific enzyme activity, U mg^−1=μmol min^−1 mg^−1 • cS substrate or cofactor concentration, mol L^−1 • Km semisaturation concentration, mol L^−1 • Ki inhibition constant, mol L^−1

[4] = target: T3, Collinsella aerofaciens 7β-HSDH mutant G39S (parent SEQ ID NO:2) (Collinsella aerofaciens, UniProt A4ECA9, G39S); experiment: as above; settings: 100 μM NADPH, varied DHCA, Michaelis-Menten model with substrate inhibition
T3 sequence (A4ECA9 1-263 G39S): T1 sequence (A4ECA9 1-263) with G39S
Method: as §7, §8, §9, §10, §11

[5] = target: T4, 7β-HSDH from Collinsella aerofaciens DSM 3979 (ATCC 25986), wild type, SEQ ID NO:2 (Collinsella aerofaciens, UniProt A4ECA9); experiment: Enzyme assay and kinetic analysis of 7β-HSDH (Lineweaver-Burk); type: biochemical; settings: pH 8, 25° C.
T4 construct: The gene coding for 7β-HSDH was once again amplified from the genomic DNA by PCR; made in house; host or cells: E. coli BL21(DE3), pET-28a(+)
T4 sequence (A4ECA9 1-263): T1 sequence (A4ECA9 1-263)

[6] = Preparative biotransformation of 7-keto-LCA by 7β-HSDH with ADH regeneration, HPLC; type: biochemical, Collinsella aerofaciens DSM 3979; settings: isolated enzyme with ADH and 2-propanol for NADPH regeneration, 24° C., 24 hours
[7] = type: biochemical, Collinsella aerofaciens; settings: 100 μM NADPH
[8] = Photometric activity of 7β-HSDH variants with NADPH or NADH (production example 7); type: biochemical, Collinsella aerofaciens
[9] = substrate: NC(=O)c1ccc[n+]([C@@H]2O[C@H](COP(=O)([O-])OP(=O)(O)OC[C@H]3O[C@@H](n4cnc5c(N)ncnc54)[C@H](O)[C@@H]3O)[C@@H](O)[C@H]2O)c1; experiment: Kinetic constants of FDH (characterization of the mutant D221G); type: biochemical, Mycobacterium vaccae N10; settings: 37.0 °C
Excerpt: (§1) The following vector constructs were used • pET22b(+) 7β-HSDH: a pET22b(+) vector into which the 7β-HSDH from Collinsella aerofaciens ATCC 25986 had been cloned via the Nde I and Hind III cleavage sites in the usual way. • pET22b(+) 3α-HSDH: a pET22b(+) vector into which the 3α-HSDH from Comamonas testosteroni had been cloned via the Nde I and EcoR I cleavage sites in the usual way (Oppermann et al., J Biochem, 1996, 241(3): 744-749). • pET21a(+) FDH D221G (cf. FIG. 4a): a pET21a(+) vector into which the formate dehydrogenase from Mycobacterium vaccae N10 had been cloned via the Nde I and EcoR I cleavage sites. With site-directed mutagenesis, the aspartate residue (D) at position 221 (without taking into account methionine in position 1) or position 222 (counting from methionine in position 1; cf. SEQ ID NO: 15, 19, 35) of formate dehydrogenase was replaced with a glycine residue (cf. production example 4, below). Formate dehydrogenase carries, at position 1202 of the nucleotide sequence, a single base deletion, which leads to exchange of the last amino acid valine for an alanine. Simultaneously, this base deletion leads to switching-off of the stop codon and to activation of the His·Tag that was originally outside of the reading frame (cf. SEQ ID NO: 34 and 35). • pET21a(+) 7β-HSDH: a pET21a(+) vector, into which the 7β-HSDH from Collinsella aerofaciens ATCC 25986 had been cloned via the Nde I and Xho I cleavage sites in the usual way • pET21a(+) FDH D221G 7β-HSDH (cf. FIG. 4b) • pET21a(+) FDH 7β-HSDH(G39A) 3α-HSDH (cf. FIG. 8) • pCOLA(mod) 3α-HSDH (cf. FIG. 5) Microorganisms
(§2) The production of an FDH mutant, which can regenerate not only NADH, but also NADHP, will be explained in more detail with the mutant D221G.
(§3) This can lead to repulsion of the phosphate group in the NADP^+, which is also negatively charged. The aspartate is therefore replaced with the small uncharged amino acid residue glycine (G).
(§4) First an LB preculture was inoculated from frozen stored material or with a colony from an agar plate and the preculture was incubated overnight. Incubation was carried out at 37° C. and 250 rpm. The OD of the preculture was determined and the culture was inoculated to an OD of 0.1. On reaching an OD of 0.5-1 (after about 2.5 h), it was induced with IPTG (final concentration 1 mM). The cells were harvested three hours after induction.
(§5) The cells were disrupted mechanically with glass beads. For this, 0.5 mL of glass beads were added to 0.5 mL of cell sample in a 1.5-mL reaction vessel and the reaction vessel was shaken for 3 min at maximum frequency (30 s^−1) in a Retsch vibratory mill. After cell maceration, the glass beads were centrifuged off (2 min, 13000 rpm). Before and after maceration, the culture was put on ice, to minimize protein denaturation through heating of the sample in the vibratory mill. This maceration protocol is optimized for the use of samples frozen at −20° C.
(§6) Summary of kinetic constants of FDH at pH 6, 7 and 8.

[10] = substrate: NC(=O)c1ccc[n+]([C@@H]2O[C@H](COP(=O)([O-])OP(=O)(O)OC[C@H]3O[C@@H](n4cnc5c(N)ncnc54)[C@H](OP(=O)(O)O)[C@@H]3O)[C@@H](O)[C@H]2O)c1; experiment: as above; type: biochemical, Mycobacterium vaccae N10; settings: 37.0 °C
Excerpt: as §1, §2, §3, §4, §5, §6

[11] = substrate: O=CO; experiment: as above; type: biochemical, Mycobacterium vaccae N10; settings: 37.0 °C
Excerpt: as §1, §2, §3, §4, §5, §6

[12] = other: pH 6, substrate sodium formate, pH 6.0
[13] = other: pH 7, substrate sodium formate, pH 7.0
[14] = other: pH 8, substrate sodium formate, pH 8.0

For C[C@H](CCC(=O)O)[C@H]1CC[C@H]2[C@@H]3C(=O)C[C@@H]4CC(=O)CC[C@]4(C)[C@H]3CC(=O)[C@]12C [DHCA, Dehydrocholic acid], the “activity of 7β-HSDH against the test substance” value (7β-HSDH) was 119 U/ml, the Vmax [1] was 28.33 U/mg protein and the kcat [1] was 875.35 1 μmol/(μmol × min). For the same molecule, the Vmax [2] was 14.6 ± 1.0 U/mg, the Vmax ([2]; listed as DCS) was 14.6 ± 1.0 U/mg and the Vmax ([2]; listed as dehydrocholic acid) was 14.6±1.0 U/mg. It also gave a Vmax ([3]; listed as DCS) of 21.0 ± 1.1 U/mg, a Vmax ([3]; listed as dehydrocholic acid) of 21.0±1.1 U/mg and a Vmax ([4]; listed as DCS) of 20.7 ± 1.0 U/mg. The Vmax ([4]; listed as dehydrocholic acid) was 20.1±1.0 U/mg.

For NC(=O)c1ccc[n+]([C@@H]2O[C@H](COP(=O)([O-])OP(=O)(O)OC[C@H]3O[C@@H](n4cnc5c(N)ncnc54)[C@H](O)[C@@H]3O)[C@@H](O)[C@H]2O)c1 [NAD^+], the kcat [1] was “Traces” and the kcat [5] was “Traces”.

With NC(=O)C1=CN([C@@H]2O[C@H](COP(=O)(O)OP(=O)(O)OC[C@H]3O[C@@H](n4cnc5c(N)ncnc54)[C@H](O)[C@@H]3O)[C@@H](O)[C@H]2O)C=CC1 [NADH] the kcat [1] was “Traces” and the kcat [5] was “Traces”.

B1: 7β-HSDH WT: 7β-hydroxysteroid dehydrogenase from Collinsella aerofaciens ATCC 25986 (DSM 3979), SEQ ID NO:2, NADPH-dependent (protein, listed as Collinsella aerofaciens)
chain: T1 sequence (A4ECA9 1-263)
With B1 the “conversion of 7-keto-LCA to UDCA” value [6] was 90%, the “maximum attainable enzyme activities (specific enzyme activities at the maxima of the kinetic curves)” value [7] was roughly 13 U/mg and the “enzyme activity at substrate concentration of 10 mM dehydrocholic acid” value ([7]; 10 mM dehydrocholic acid) was roughly 6.7 U/mg. The “Specific activity NADH” value ([8]; cofactor NADH) was 0 U/mg, the “Volumetric activity NADH” value ([8]; cofactor NADH) was 0 U/ml and the “Specific activity NADPH” value ([8]; cofactor NADPH) was 5.6 U/mg. The “Volumetric activity NADPH” value ([8]; cofactor NADPH) was 134 U/ml, the residual activity (23° C., 1500 min) was 20% and the “activity at 30° C. lower than at 23° C.” value (after 400 min) was “about 30%”. The “activity loss during storage” value (−20° C., potassium phosphate buffer 50 mM pH 8, some months, repeated freezing and thawing) was “No significant activity loss”.

B2: Mycobacterium vaccae formate dehydrogenase (FDH) mutant D221G (= D222G of SEQ ID NO:36; SEQ ID NO: 15, 19, 35) (Mycolicibacterium vaccae; D222G) (protein)
chain: MAKVLCVLYDDPVDGYPKTYARDDLPKIDHYPGGQILPTPKAIDFTPGQLLGSVSGELGLREYLESNGHTLVVTSDKDGPDSVFERELVDADVVISQPFWPAYLTPERIAKAKNLKLALTAGIGSDHVDLQSAIDRNVTVAEVTYCNSISVAEHVVMMILSLVRNYLPSHEWARKGGWNIADCVSHAYDLEAMHVGTVAAGRIGLAVLRRLAPFDVHLHYTGRHRLPESVEKELNLTWHATREDMYPVCDVVTLNCPLHPETEHMINDETLKLFKRGAYIVNTARGKLCDRDAVARALESGRLAGYAGDVWFPQPAPKDHPWRTMPYNGMTPHISGTTLTAQARYAAGTREILECFFEGRPIRDEYLIVQGGALAGTGAHSYSKGNATGGSEEAAKFKKAAENSSSVDKLAAALEHHHHHH
notes: single-base deletion at the 3' end gives C-terminal read-through His-tag (last Val to Ala)
In the case of B2, the Km [9, 12] is reported as 830 µM, the Km [9, 13] is reported as 610 µM and the Km [9, 14] is reported as 520 µM. The Km [10, 12] was 300 µM, the Km [10, 13] was 510 µM and the Km [10, 14] was 1010 µM. For the same molecule, the Km ([11]; other: pH 6, cofactor NAD^+, pH 6.0) was 46860 µM, the Km ([11]; other: pH 7, cofactor NAD^+, pH 7.0) was 45560 µM and the Km ([11]; other: pH 8, cofactor NAD^+, pH 8.0) was 59260 µM.
